Legend:
[1] = test system: Intestinal epithelial cells of the Caco-2 line; test: Iron fixation at the cellular level over 16 hours of culture (Example 1, FIG. 1); format: cell-based, human; conditions: Caco-2 cells, no L-arginine
Experimental: Native bovine Lf was treated at pH 1 so as to substitute the unlabeled iron that it contained in the natural state with ^59Fe labeled iron.
The Lf-^59Fe was then purified in order to remove the nonfixed labeled iron, by gel filtration on a column of SEPHADEX® G-75.
(§1) Intestinal epithelial cells of the Caco-2 line derived from a colon cancer were incubated in a proportion of 2×10^6 cells per ml in an RPMI 1640 medium buffered at pH 7.4, in the presence of 25 mmolar of Hepes, containing 15% (v/v) of fetal calf serum, 2 mmol/l of L-glutamine and 1% (v/v) of a solution of streptomycin-penicillin, sold by the company Gibco.
(§2) Iron fixation at the cellular level was then initiated by adding Lf-^59Fe and/or labeled iron and/or L-arginine.
(§3) One of the cell culture tubes received none of these three constituents, so as to act as a control.
The distribution of the constituents, and also the concentrations at which they were used, appear in Table I below:
The cells were then incubated for a period of 16 hours in Eppendorf tubes kept stirring for the final 2 hours of the culture period. Throughout the incubation period, the amount of cellular iron was measured by centrifugation pellet of the cells a first time after 30 minutes (t=0.5), then after one hour (t=1), and then every hour (t=2 to t=16), using a device for measuring the radioactivity.

[2] = test system: Intestinal epithelial cells of the Caco-2 line; test: Degree of iron fixation at the cellular level as a function of concentrations (Example 3); format: cell-based, human; conditions: Caco-2 cells, after 72 hours of incubation; tube contents per Table III (mg/ml); Control = 1
Experimental: as §1
Twelve tubes of epithelial cell cultures were prepared according to the conditions described above in Example 1.
as §2, §3
The distribution of the constituents, and also the concentrations at which they were used, appear in Table III below:
The degree of cellular fixation of iron was measured after 72 hours of incubation using a device for measuring the radioactivity.

B1: Lf-^59Fe: Native bovine lactoferrin treated at pH 1 and saturated with ^59Fe labeled iron (85% to 100% saturation) (protein, UniProt P24627 20-708, looked up)
Lactotransferrin: APRKNVRWCTISQPEWFKCRRWQWRMKKLGAPSITCVRRAFALECIRAIAEKKADAVTLDGGMVFEAGRDPYKLRPVAAEIYGTKESPQTHYYAVAVVKKGSNFQLDQLQGRKSCHTGLGRSAGWIIPMGILRPYLSWTESLEPLQGAVAKFFSASCVPCIDRQAYPNLCQLCKGEGENQCACSSREPYFGYSGAFKCLQDGAGDVAFVKETTVFENLPEKADRDQYELLCLNNSRAPVDAFKECHLAQVPSHAVVARSVDGKEDLIWKLLSKAQEKFGKNKSRSFQLFGSPPGQRDLLFKDSALGFLRIPSKVDSALYLGSRYLTTLKNLRETAEEVKARYTRVVWCAVGPEEQKKCQQWSQQSGQNVTCATASTTDDCIVLVLKGEADALNLDGGYIYTAGKCGLVPVLAENRKSSKHSSLDCVLRPTEGYLAVAVVKKANEGLTWNSLKDKKSCHTAVDRTAGWNIPMGLIVNQTGSCAFDEFFSQSCAPGADPKSRLCALCAGDDQGLDKCVPNSKEKYYGYTGAFRCLAEDVGDVAFVKNDTVWENTNGESTADWAKNLNREDFRLLCLDGTRKPVTEAQSCHLAVAPNHAVVSRSDRAAHVKQVLLHQQALFGKNGKNCPDKFCLFKSETKNLLFNDNTECLAKLGGRPTYEEYLGTEYVTAIANLKKCSTSPLLEACAFLTR
modifications: 59Fe iron-saturated
In the case of B1, the “Persistence of the iron fixed in the cell” value [1] is reported as “only transiently fixed”.

B2: Cell culture tube 3: Table III tube: Lf-^59Fe 0.01 mg/ml alone (protein, UniProt P24627 20-708, looked up)
Lactotransferrin: APRKNVRWCTISQPEWFKCRRWQWRMKKLGAPSITCVRRAFALECIRAIAEKKADAVTLDGGMVFEAGRDPYKLRPVAAEIYGTKESPQTHYYAVAVVKKGSNFQLDQLQGRKSCHTGLGRSAGWIIPMGILRPYLSWTESLEPLQGAVAKFFSASCVPCIDRQAYPNLCQLCKGEGENQCACSSREPYFGYSGAFKCLQDGAGDVAFVKETTVFENLPEKADRDQYELLCLNNSRAPVDAFKECHLAQVPSHAVVARSVDGKEDLIWKLLSKAQEKFGKNKSRSFQLFGSPPGQRDLLFKDSALGFLRIPSKVDSALYLGSRYLTTLKNLRETAEEVKARYTRVVWCAVGPEEQKKCQQWSQQSGQNVTCATASTTDDCIVLVLKGEADALNLDGGYIYTAGKCGLVPVLAENRKSSKHSSLDCVLRPTEGYLAVAVVKKANEGLTWNSLKDKKSCHTAVDRTAGWNIPMGLIVNQTGSCAFDEFFSQSCAPGADPKSRLCALCAGDDQGLDKCVPNSKEKYYGYTGAFRCLAEDVGDVAFVKNDTVWENTNGESTADWAKNLNREDFRLLCLDGTRKPVTEAQSCHLAVAPNHAVVSRSDRAAHVKQVLLHQQALFGKNGKNCPDKFCLFKSETKNLLFNDNTECLAKLGGRPTYEEYLGTEYVTAIANLKKCSTSPLLEACAFLTR
modifications: 59Fe iron-saturated
In the case of B2, the “Degree of iron fixation in the cells (cpm ^59Fe)” value (from here on “Degree of iron fixation”) [2] is reported as 1.1 ± 0.1 cpm ^59Fe.

B3: Cell culture tube 1: Table III tube: Lf-^59Fe 1 mg/ml alone (protein, UniProt P24627 20-708, looked up)
Lactotransferrin: APRKNVRWCTISQPEWFKCRRWQWRMKKLGAPSITCVRRAFALECIRAIAEKKADAVTLDGGMVFEAGRDPYKLRPVAAEIYGTKESPQTHYYAVAVVKKGSNFQLDQLQGRKSCHTGLGRSAGWIIPMGILRPYLSWTESLEPLQGAVAKFFSASCVPCIDRQAYPNLCQLCKGEGENQCACSSREPYFGYSGAFKCLQDGAGDVAFVKETTVFENLPEKADRDQYELLCLNNSRAPVDAFKECHLAQVPSHAVVARSVDGKEDLIWKLLSKAQEKFGKNKSRSFQLFGSPPGQRDLLFKDSALGFLRIPSKVDSALYLGSRYLTTLKNLRETAEEVKARYTRVVWCAVGPEEQKKCQQWSQQSGQNVTCATASTTDDCIVLVLKGEADALNLDGGYIYTAGKCGLVPVLAENRKSSKHSSLDCVLRPTEGYLAVAVVKKANEGLTWNSLKDKKSCHTAVDRTAGWNIPMGLIVNQTGSCAFDEFFSQSCAPGADPKSRLCALCAGDDQGLDKCVPNSKEKYYGYTGAFRCLAEDVGDVAFVKNDTVWENTNGESTADWAKNLNREDFRLLCLDGTRKPVTEAQSCHLAVAPNHAVVSRSDRAAHVKQVLLHQQALFGKNGKNCPDKFCLFKSETKNLLFNDNTECLAKLGGRPTYEEYLGTEYVTAIANLKKCSTSPLLEACAFLTR
modifications: 59Fe iron-saturated
For B3, the “Degree of iron fixation” value [2] was 1.2 ± 0.1 cpm ^59Fe.

B4: Cell culture tube 2: Table III tube: Lf-^59Fe 0.1 mg/ml alone (protein, UniProt P24627 20-708, looked up)
Lactotransferrin: APRKNVRWCTISQPEWFKCRRWQWRMKKLGAPSITCVRRAFALECIRAIAEKKADAVTLDGGMVFEAGRDPYKLRPVAAEIYGTKESPQTHYYAVAVVKKGSNFQLDQLQGRKSCHTGLGRSAGWIIPMGILRPYLSWTESLEPLQGAVAKFFSASCVPCIDRQAYPNLCQLCKGEGENQCACSSREPYFGYSGAFKCLQDGAGDVAFVKETTVFENLPEKADRDQYELLCLNNSRAPVDAFKECHLAQVPSHAVVARSVDGKEDLIWKLLSKAQEKFGKNKSRSFQLFGSPPGQRDLLFKDSALGFLRIPSKVDSALYLGSRYLTTLKNLRETAEEVKARYTRVVWCAVGPEEQKKCQQWSQQSGQNVTCATASTTDDCIVLVLKGEADALNLDGGYIYTAGKCGLVPVLAENRKSSKHSSLDCVLRPTEGYLAVAVVKKANEGLTWNSLKDKKSCHTAVDRTAGWNIPMGLIVNQTGSCAFDEFFSQSCAPGADPKSRLCALCAGDDQGLDKCVPNSKEKYYGYTGAFRCLAEDVGDVAFVKNDTVWENTNGESTADWAKNLNREDFRLLCLDGTRKPVTEAQSCHLAVAPNHAVVSRSDRAAHVKQVLLHQQALFGKNGKNCPDKFCLFKSETKNLLFNDNTECLAKLGGRPTYEEYLGTEYVTAIANLKKCSTSPLLEACAFLTR
modifications: 59Fe iron-saturated
In the case of B4, the “Degree of iron fixation” value [2] is reported as 1.0 ± 0.2 cpm ^59Fe.
